The results in this text go back to US20160109449A1 (JULIUS MAXIMILIANS UNIVERSITAET WUERZBURG, published 2016).

Read-outs that look alike come from different tables or passages of the source.

In assay [1] the target is IsaA oligopeptide SEQ ID NO: 10 (Staphylococcus aureus). Kind of assay: peptide array on glass slide, fluorescent secondary antibody.
In assay [2] the target is IsaA oligopeptide SEQ ID NO: 15 (Staphylococcus aureus). Described as above.
Assay [3] deals with IsaA oligopeptide SEQ ID NO: 19 (Staphylococcus aureus). The description is as above.
Assay [4] deals with IsaA oligopeptide SEQ ID NO: 23 (Staphylococcus aureus). The description is as above.
Assay [5] deals with IsaA oligopeptide SEQ ID NO: 24 (Staphylococcus aureus). The assay is described as above.
The target of assay [6] is IsaA oligopeptide SEQ ID NO: 25 (Staphylococcus aureus). Described as above.
Assay [7] concerns the target IsaA oligopeptide SEQ ID NO: 26 (Staphylococcus aureus). The assay is described as above.
In assay [8] the target is IsaA oligopeptide SEQ ID NO: 27 (Staphylococcus aureus). The assay is described as above.
The target in assay [9] is IsaA oligopeptide SEQ ID NO: 32 (Staphylococcus aureus). The assay is described as above.
Assay [10] addresses IsaA oligopeptide SEQ ID NO: 34 (Staphylococcus aureus). The assay is described as above.
For assay [11], the target named is IsaA oligopeptide SEQ ID NO: 35 (Staphylococcus aureus). Described as above.
For assay [12], the target named is IsaA oligopeptide SEQ ID NO: 37 (Staphylococcus aureus). Described as above.
The target in assay [13] is IsaA oligopeptide SEQ ID NO: 38 (Staphylococcus aureus). The description is as above.
Assay [14] addresses IsaA oligopeptide SEQ ID NO: 43 (Staphylococcus aureus). Described as above.
Assay [15] addresses IsaA oligopeptide SEQ ID NO: 44 (Staphylococcus aureus). Described as above.
For assay [16], the target named is IsaA oligopeptide SEQ ID NO: 45 (Staphylococcus aureus). The description is as above.
In assay [17] the target is IsaA oligopeptide SEQ ID NO: 46 (Staphylococcus aureus). Described as above.
For assay [18], the target named is IsaA oligopeptide SEQ ID NO: 50 (Staphylococcus aureus). The description is as above.
For assay [19], the target named is IsaA oligopeptide SEQ ID NO: 53 (Staphylococcus aureus). The description is as above.
Assay [20] concerns the target IsaA oligopeptide SEQ ID NO: 57 (Staphylococcus aureus). The description is as above.
The target of assay [21] is IsaA oligopeptide SEQ ID NO: 61 (Staphylococcus aureus). The description is as above.
Assay [22] deals with IsaA oligopeptide SEQ ID NO: 63 (Staphylococcus aureus). The description is as above.
For assay [23], the target named is T1, IsaA oligopeptide SEQ ID NO: 17 (Staphylococcus aureus).
T1 construct: Synthetic 15-mer of IsaA, spotted on a glass slide
T1 peptide: NVDQAHLVDLAHNHQ
Described as above.
Procedure: (§1) Each oligopeptide was immobilized on a small spot on a glass side. Binding of the monoclonal antibodies secreted by the hybridoma cell line DSM ACC2987 and of control antibodies to these spots was examined upon incubation with these antibodies by binding of fluorescence labeled secondary antibodies and detecting fluorescence intensities.

For assay [24], the target named is T2, IsaA oligopeptide SEQ ID NO: 18 (Staphylococcus aureus).
T2 construct: Synthetic 15-mer of IsaA, spotted on a glass slide
T2 peptide: AHLVDLAHNHQDQLN
Described as above.
Procedure: as §1

For assay [25], the target named is T3, IsaA oligopeptide SEQ ID NO: 27 (Staphylococcus aureus).
T3 construct: Synthetic 15-mer of IsaA, spotted on a glass slide
T3 peptide: FTSNGTTWSWSYEAA
The description is as above.
Procedure: as §1

Assay [26] deals with T4, IsaA oligopeptide SEQ ID NO: 32 (Staphylococcus aureus).
T4 construct: Synthetic 15-mer of IsaA, spotted on a glass slide
T4 peptide: GFSNVAGADYTTSYN
The description is as above.
Procedure: as §1

Assay [27] has as its target T5, IsaA oligopeptide SEQ ID NO: 38 (Staphylococcus aureus).
T5 construct: Synthetic 15-mer of IsaA, spotted on a glass slide
T5 peptide: YNAQSSNSNVEAVSA
Described as above.
Procedure: as §1

The target in assay [28] is T6, IsaA oligopeptide SEQ ID NO: 41 (Staphylococcus aureus).
T6 construct: Synthetic 15-mer of IsaA, spotted on a glass slide
T6 peptide: VSAPTYHNYSTSTTS
The assay is described as above.
Procedure: as §1

Assay [29] addresses T7, IsaA oligopeptide SEQ ID NO: 51 (Staphylococcus aureus).
T7 construct: Synthetic 15-mer of IsaA, spotted on a glass slide
T7 peptide: TGVSASTWAAIIARE
The assay is described as above.
Procedure: as §1

In assay [30] the target is T8, IsaA oligopeptide SEQ ID NO: 52 (Staphylococcus aureus).
T8 construct: Synthetic 15-mer of IsaA, spotted on a glass slide
T8 peptide: ASTWAAIIARESNGQ
The assay is described as above.
Procedure: as §1

Assay [31] has as its target T9, IsaA oligopeptide SEQ ID NO: 53 (Staphylococcus aureus).
T9 construct: Synthetic 15-mer of IsaA, spotted on a glass slide
T9 peptide: AAIIARESNGQVNAY
The description is as above.
Procedure: as §1

For assay [32], the target named is T10, IsaA oligopeptide SEQ ID NO: 9 (Staphylococcus aureus).
T10 construct: Synthetic 15-mer of IsaA, spotted on a glass slide
T10 peptide: MKKTIMASSLAVALG
The assay is described as above.
Procedure: as §1

The target of assay [33] is T11, IsaA oligopeptide SEQ ID NO: 64 (Staphylococcus aureus).
T11 construct: Synthetic 15-mer of IsaA, spotted on a glass slide
T11 peptide: AVKAYKAQGLGAWGF
The assay is described as above.
Procedure: as §1

In assay [34] the target is T12, recombinant IsaA protein of Staphylococcus aureus (29 kDa immunodominant antigen IsaA) (Staphylococcus aureus, UniProt Q2FV52 30-233, limits assumed).
T12 construct: Coated as rIsaA in the ELISA; In the first SPR experiment it was N-biotinylated with sulfo-NHS-LC-biotin (mostly at a single site) and immobilised on streptavidin; In the second SPR experiment it was the analyte in solution; also called rIsaA; 29 kDa IsaA antigen
T12 sequence (looked up): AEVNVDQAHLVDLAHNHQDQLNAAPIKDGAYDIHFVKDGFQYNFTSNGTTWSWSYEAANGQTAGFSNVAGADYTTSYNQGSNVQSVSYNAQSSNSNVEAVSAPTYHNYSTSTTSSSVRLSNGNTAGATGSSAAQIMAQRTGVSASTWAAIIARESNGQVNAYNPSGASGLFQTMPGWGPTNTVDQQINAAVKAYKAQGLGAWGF
In words: SPR (BIACORE 2000), biotinylated IsaA on streptavidin chip, antibody as analyte; off rate set to 10^-5 sec^-1; off rate set to 10^-5 sec^-1. For orientation: SPR reads the build-up and loss of mass on a sensor chip optically.
Procedure: The amount of the immobilized antigen corresponds to about 100 resonance units [RU] measured by means of the BIACORE®2000 system.
Interaction analyses were performed using HBS150 buffer (10 mM HEPES pH7.4, 150 mM NaCl, 3.4 mM EDTA). Sensorgrams were recorded at a flow rate of 10 μl/min at 25° C. The association and dissociation time was set to 10 min. The chips were regenerated after each cycle with different regeneration solutions (A: 1 mM CH₃COOH, 1 M NaCl, pH 3; B: 4 M MgCl₂; C: 1 mM CH₃COOH, 1 M NaCl, 6 M Urea, pH 3) for 2 min.
Since the evaluation of the kinetic rate constant is limited to 10⁻⁵ sec⁻¹ the observed off-rate has to be smaller than that value.

In the case of “control antibodies (peptide array) (antibody)”, the Binding (fluorescence intensity) was 160 in assay [1]; 107 in assay [2]; 83.7 in assay [3]; 367 in [4]; 79.3 in [5]; -61.7 in [6]. For the same molecule, the Binding (fluorescence intensity) in assay [7] was 261; in assay [8], 81; in [9], 98.3; in assay [10], 98.7; in [11], 110; in assay [12], -27.3. The Binding (fluorescence intensity) in assay [13] is 97.7; in assay [14], 44.3; in assay [15], 114; in assay [16], -4.3; in assay [17], -24.3; in [18] it was -49.7. Also, the Binding (fluorescence intensity) in assay [19] was determined as 70.3; in assay [20] it was 313; in [21], 30.3; in [22], 57.7.

B1: monoclonal antibody MAB-UK-66 secreted by hybridoma cell line DSM ACC2987 (antibody, V domains shown)
VH: DVKLVESGGGLVKLGGSLKLSCSASGFTFSNYYMSWVRQTPEKRLELVADINGNGGSTYYPDTVKGRFTISRDNAKNTLYLQMSSLKSEDTALYYCVRRGGYYALDYWGQGTTVTVSS
VL: DVVMTQTPLSLPVSLGDQASISCRSSQSLVHINGNTYLHWYLQKPGQSPKLLIYRVSNRFSGVPDRFSGSGSGTDFTLKISRVEAEDLGVYFCSQSTHVPWTFGGGTKLELKR
notes: Monoclonal mouse antibody from a hybridoma; Detected with anti-mouse IgG; also called antibodies secreted by cell line DSM ACC2987; anti-IsaA MAB
As to B1, the “Binding (fluorescence intensity)” value was 17700 in assay [23]; 25300 in assay [24]; 442 in assay [25]; 59500 in [26]; 975 in [27]; 421 in assay [28]. In addition, the “Binding (fluorescence intensity)” value was found to be 139 in assay [29]; 285 in assay [30]; 577 in assay [31]; 273 in [32]; 379 in [33]. Also, the Kd in assay [34] is not above 0.018 nM. The kon in assay [34] stood at 560000 M⁻¹ s⁻¹.

As usually defined, the Kd is a measure of binding affinity in units of concentration. Usually kon stands for a measure of how fast the partners come together.
